Laboratory results: US20190241662A1 (ADAGENE, published 2019)

Columns and labels:
[1] = molecular target: T1, full-length human CTLA4 expressed on cells (human, UniProt P16410 36-223); experiment: cell-based or functional assay
T1 sequence (looked up): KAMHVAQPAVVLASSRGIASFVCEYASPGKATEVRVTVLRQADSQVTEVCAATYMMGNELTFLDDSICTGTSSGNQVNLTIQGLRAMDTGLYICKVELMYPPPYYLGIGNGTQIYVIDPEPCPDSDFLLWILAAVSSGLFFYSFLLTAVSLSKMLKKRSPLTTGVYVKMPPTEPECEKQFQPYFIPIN

[2] = molecular target: T2, biotinylated rat CTLA4 protein fused with human FC (rat, UniProt Q62859 36-161, Biotinylated; sites not stated); experiment: BLI (ForteBio), biotinylated rat CTLA4-Fc on SA sensor, IgG 15 ug/mL
T2 sequence: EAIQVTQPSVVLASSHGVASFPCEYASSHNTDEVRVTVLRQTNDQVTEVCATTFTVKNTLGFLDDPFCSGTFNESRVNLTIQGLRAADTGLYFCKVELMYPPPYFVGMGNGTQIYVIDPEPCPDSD
Excerpt: The association and dissociation curves were fitted to a 1:1 Langmuir binding model using ForteBio Data Analysis 7.1 (Pall, USA) according to the manufacturer's guidelines.

[3] = molecular target: T3, human Tim3 on HEK293F cells (human, UniProt Q8TDQ0 22-301); experiment: flow cytometry, transfected HEK293F cells [Cont.]
T3 construct: whole, on cells
T3 sequence (looked up): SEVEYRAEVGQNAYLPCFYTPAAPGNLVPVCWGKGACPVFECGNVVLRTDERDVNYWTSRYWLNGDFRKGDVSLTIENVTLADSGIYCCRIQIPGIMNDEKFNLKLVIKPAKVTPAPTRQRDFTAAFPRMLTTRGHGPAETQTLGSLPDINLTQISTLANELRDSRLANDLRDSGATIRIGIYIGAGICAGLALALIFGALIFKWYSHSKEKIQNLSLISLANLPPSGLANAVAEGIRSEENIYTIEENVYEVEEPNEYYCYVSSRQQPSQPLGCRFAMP
Protocol: (§1) Antibody selectivity was next examined. Human CTLA4, PD1, LAG3, Tim3, B7H3, CD95, TNFR1, OX40, CD40, PD-L1, BLTA, VISTA, PDL2, ICOS and B7H4 were transiently overexpressed on the surface of HEK293F cells. Transfected cells were washed in pre-chilled 1×PBSA buffer (1.76 mM KH2PO4, 10.14 mM Na2HPO4.12H2O, 2.68 mM KCl, 136.89 mM NaCl and 1% BSA), then incubated with 100 nM test antibodies for 1 hour on ice. Cells were washed once with staining buffer, and Alexa Fluor® 647 conjugated mouse anti-human FC antibodies were added and incubated for 30 minutes on ice, protected from light. Samples were washed once with staining buffer prior to analysis by flow cytometry.

[4] = molecular target: T4, human B7H3 on HEK293F cells (human, UniProt Q5ZPR3 29-534); experiment: flow cytometry, transfected HEK293F cells [Cont.]
T4 construct: whole, on cells
T4 sequence (looked up): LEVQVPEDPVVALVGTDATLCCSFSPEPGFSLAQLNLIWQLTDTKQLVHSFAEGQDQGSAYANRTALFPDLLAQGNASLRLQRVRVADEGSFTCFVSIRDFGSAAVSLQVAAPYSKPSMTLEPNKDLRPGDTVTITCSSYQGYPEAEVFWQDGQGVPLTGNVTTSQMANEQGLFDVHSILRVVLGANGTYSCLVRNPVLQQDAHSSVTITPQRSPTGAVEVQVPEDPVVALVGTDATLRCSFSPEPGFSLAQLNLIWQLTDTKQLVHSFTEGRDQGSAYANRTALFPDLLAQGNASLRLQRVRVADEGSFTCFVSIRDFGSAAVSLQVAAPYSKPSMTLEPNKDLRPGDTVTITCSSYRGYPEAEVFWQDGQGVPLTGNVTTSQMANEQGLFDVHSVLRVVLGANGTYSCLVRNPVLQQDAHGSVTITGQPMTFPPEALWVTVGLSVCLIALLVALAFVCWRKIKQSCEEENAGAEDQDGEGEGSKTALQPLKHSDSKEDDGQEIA
Protocol: as §1

[5] = molecular target: T5, human PD1 on HEK293F cells (human, UniProt Q15116 25-288); experiment: flow cytometry, transfected HEK293F cells
T5 construct: whole, on cells
Protocol: as §1

[6] = molecular target: T1, full-length human CTLA4 expressed on …; experiment: flow cytometry blocking: HEK293F cells with human CTLA4, 100 nM antibody, then 100 nM CD86-Fc-Bio (blocked ligand); PBSA panel: Mean 10678, 12.2%
Protocol: (§2) Antibodies were also tested for their ability to block binding of CTLA4 to its cognate ligands CD80 and CD86 by flow cytometry. The plasmid encoding full-length human CTLA4 was transiently expressed in HEK293F cells. Cells were washed with staining buffer (PBSA buffer including 1.76 mM KH₂PO₄, 10.14 mM Na₂HPO₄.12H₂O, 2.68 mM KCl, 136.89 mM NaCl and 1% BSA), and resuspended in staining buffer containing 100 nM test antibodies. […] Cells were washed once, and analyzed by CytoFlex flow cytometry.

[7] = molecular target: T1, full-length human CTLA4 expressed on …; experiment: flow cytometry blocking: HEK293F cells with human CTLA4, 100 nM antibody, then 100 nM CD80-Fc-Bio (blocked ligand); PBSA panel: Mean 157692, 26.3%
Protocol: as §2

[8] = molecular target: T6, human CD40 on HEK293F cells (human, UniProt P25942 21-277); experiment: flow cytometry, transfected HEK293F cells [Cont.]
T6 construct: whole, on cells
Protocol: as §1

T6 sequence (P25942 21-277): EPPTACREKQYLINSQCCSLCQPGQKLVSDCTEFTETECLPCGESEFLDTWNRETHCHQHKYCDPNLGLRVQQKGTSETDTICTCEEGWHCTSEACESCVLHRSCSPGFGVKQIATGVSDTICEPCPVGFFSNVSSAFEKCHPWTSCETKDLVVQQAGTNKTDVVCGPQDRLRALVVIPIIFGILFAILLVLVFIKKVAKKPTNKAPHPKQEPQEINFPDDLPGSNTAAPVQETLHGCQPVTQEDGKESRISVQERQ
T5 sequence (Q15116 25-288): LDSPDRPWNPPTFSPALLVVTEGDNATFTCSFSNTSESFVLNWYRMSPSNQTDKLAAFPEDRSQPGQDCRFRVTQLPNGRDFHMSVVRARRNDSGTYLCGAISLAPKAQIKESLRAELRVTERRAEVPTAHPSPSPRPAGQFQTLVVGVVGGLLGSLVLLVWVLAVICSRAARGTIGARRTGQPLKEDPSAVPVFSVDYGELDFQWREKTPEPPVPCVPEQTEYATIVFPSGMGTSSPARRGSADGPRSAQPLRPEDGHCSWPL

B1: TY21687 (antibody, V domains shown)
VH: EVQLVESGGGLVQPGGSLRLSCAASGFTFSGYAIHWVRQAPGKGLEWIGIISPSGGGTKYAQKFQGRVTISRDNSKNTLYLQLNSLRAEDTAVYYCARHPFAYWGQGTLVTVSS
VL: DIQLTQSPSSLSASVGDRVTITCRASQSVDFYGISFLDWYQQKPGKAPKLLIYDASNRATGIPSRFSGSGSGTDFTLTISSLQPEDFATYYCQQYVSSPPEYTFGQGTKVEIK
notes: human IgG1 (hIgG1) from Fab hit B15700
EC50 for TCR/CD28 pathway activation (luciferase reporter, CTLA4 blockade bioassay) [1]: 5.01 µg/mL
Kd [2]: 780 pM
binding result [3]: no binding (tested: 100 nM)
binding result [4]: no binding (tested: 100 nM)

B2: TY21585 (antibody, V domains shown)
VH: EVQLVESGGGLVQPGGSLRLSCAASGFTFSDYAIHWVRQAPGKGLEWIGIISPSSGSTNYAQKFQGRVTISRDNSKNTLYLQLNSLRAEDTAVYYCARDIHSGSSGYYYGFDVWGQGTLVTVSS
VL: DIQLTQSPSSLSASVGDRVTITCRASESVDFFGISFLAWYQQKPGKAPKLLIYDASNRATGIPSRFSGSGSGTDFTLTISSLQPEDFATYYCQHYTSSPPVYTFGQGTKVEIK
notes: human IgG1 (hIgG1) from Fab hit B15709
binding result [5]: no binding (tested: 100 nM)
% of cells in upper right quadrant (CD86-positive) in the presence of the antibody [6]: 3.43%
Mean of the CD86 binding signal in the presence of the antibody [6]: 5140
% of cells in upper right quadrant (CD80-positive) in the presence of the antibody [7]: 22.5%
Mean of the CD80 binding signal in the presence of the antibody [7]: 83700
binding result [8]: no binding (tested: 100 nM)
binding result [3]: no binding (tested: 100 nM)
binding result [4]: no binding (tested: 100 nM)

B3: TY21691 (antibody, V domains shown)
VH: EVQLVESGGGLVQPGGSLRLSCAASGFTFSDYAIHWVRQAPGKGLEWIGIISPSGGSTKYAQKFQGRVTISRDNSKNTLYLQLNSLRAEDTAVYYCARLGYGYFDVWGQGTLVTVSS
VL: DIQLTQSPSSLSASVGDRVTITCRASQSVDFYGISFLHWYQQKPGKAPKLLIYDASSLESGVPSRFSGSGSGTDFTLTISSLQPEDFATYYCVQALQLPLTFGQGTKVEIK
notes: human IgG1 (hIgG1) from Fab hit B15736
EC50 for TCR/CD28 pathway activation (luciferase reporter, CTLA4 blockade bioassay) [1]: 2.64 µg/mL
Kd [2]: 580 pM
binding result [5]: no binding (tested: 100 nM)

B4: TY21591 (antibody, V domains shown)
VH: EVQLVESGGGLVQPGGSLRLSCAASGFSLSTGGVAVSWIRQAPGKGLEWIGEIYHSGSTYYSPSLKSRVTISRDNSKNTLYLQLNSLRAEDTAVYYCARRIATATYFDYWGQGTLVTVSS
VL: DIQLTQSPSSLSASVGDRVTITCRASQTVFSRYLAWYQQKPGKAPKLLIYDASNRATGIPSRFSGSGSGTDFTLTISSLQPEDFATYYCQQSYYWPPWTFGQGTKVEIK
notes: human IgG1 (hIgG1) from Fab hit B15756
% of cells in upper right quadrant (CD86-positive) in the presence of the antibody [6]: 0.61%
Mean of the CD86 binding signal in the presence of the antibody [6]: 4960
% of cells in upper right quadrant (CD80-positive) in the presence of the antibody [7]: 24.9%
Mean of the CD80 binding signal in the presence of the antibody [7]: 68500
binding result [8]: no binding (tested: 100 nM)
